Columns and labels:
[1] = target: T1, Human Fas (CD95) on the cell surface (human, UniProt P25445 26-335); experiment: flow cytometry on SKW6.4 cells, FITC anti-human IgG secondary, geometric MFI after background subtraction
T1 construct: also called APO-1; TNR6_Human
T1 sequence: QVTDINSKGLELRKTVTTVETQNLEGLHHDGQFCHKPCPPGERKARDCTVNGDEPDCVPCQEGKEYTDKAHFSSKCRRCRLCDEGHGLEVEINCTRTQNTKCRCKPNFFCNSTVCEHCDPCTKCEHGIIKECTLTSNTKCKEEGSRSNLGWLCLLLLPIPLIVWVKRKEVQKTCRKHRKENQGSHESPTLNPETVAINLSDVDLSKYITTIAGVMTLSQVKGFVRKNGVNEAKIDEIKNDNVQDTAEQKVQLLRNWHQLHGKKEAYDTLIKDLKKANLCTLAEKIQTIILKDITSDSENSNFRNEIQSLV
Protocol: (§1) Binding of F45D9-γ1 and F45D9-γ4 to the surface of Fas expressing Jurkat and SKW6.4 cells (from ATCC, Jurkat, clone E6-1, ATCC-TIB-152, Human T Leukemia cell line); SKW6.4 cells, ATCC-TIB-215, Human B lymphoblastoid cell line) was explored by immunofluorescence staining and flow cytometry analysis. Cells were cultured in RPMI 1640 medium (GIBCO, Cat. 3105205) supplemented with 2 mM glutamax (GIBCO), 100 UI/mL penicillin, 100 μg/mL streptomycin (Sigma) and 5-10% fetal bovine serum (GIBCO), at 37° C. and 5% CO₂. After washing in PBS Jurkat or SKW6.4 cells (0.2×10⁶ cells/well) were incubated in staining buffer (PBS/1% FBS) containing F45D9-γ1, F45D9-γ4 or human IgG control antibodies (Human IgG1, kappa, Sigma, Cat. I5154 or Human IgG4, kappa, Sigma, Cat. I4639) in a 96-well U-bottom plate for 30 min on ice, in a 100 ul/well volume. Cells were then washed once with staining buffer, and further incubated for 30 min on ice with 1:30 dilution of FITC-conjugated rabbit F(ab′)₂ anti-human IgG (DakoCytomation Cat. F0056). After washing and fixing with 1% formaldehyde in PBS cells were analyzed in a FACScan (Becton Dickinson, Mountain View, Calif.). The reactivity of F45D9-γ1 and F45D9-γ4 to the surface of Jurkat cells was quantified and Geometric Mean Fluorescence Intensity (MFI) after background subtraction (FIG. 1A) and histograms (FIG. 1B) are shown. […]

[2] = target: T2, Cynomolgus macaque Fas on the cell surface (cynomolgus macaque, UniProt Q9TSN4 26-331); experiment: flow cytometry histograms (FL1-H) on cynomolgus macaque cells (cell type not printed on the sheet), FITC anti-human kappa or FITC anti-human IgG secondary
T2 construct: whole, on cells; also called Fas on cynomolgus macaque B cell line and PBL
T2 sequence (looked up): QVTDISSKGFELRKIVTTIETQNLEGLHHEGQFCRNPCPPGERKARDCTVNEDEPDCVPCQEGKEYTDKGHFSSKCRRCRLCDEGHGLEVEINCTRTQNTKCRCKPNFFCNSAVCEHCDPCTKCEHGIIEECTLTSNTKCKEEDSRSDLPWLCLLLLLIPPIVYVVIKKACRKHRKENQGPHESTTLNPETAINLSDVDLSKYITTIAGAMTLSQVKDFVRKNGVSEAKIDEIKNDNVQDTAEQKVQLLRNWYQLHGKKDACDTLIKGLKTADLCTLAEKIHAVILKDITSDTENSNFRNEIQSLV
From the text: (§2) Reactivity of F45D9-γ1 or F45D9-γ4 mAb with Fas molecules of various species was initially screened using primary blood cells or lymphocytes cell lines. The binding of F45D9-γ1 or F45D9-γ4 mAb was explored by immunofluoresce staining and flow cytometry analysis, in human PBMC, purified human resting T cells, activated human T cells, peripheral blood lymphocytes (PBL) derived from BALE/c mice, rat, dog and pig, and in B cell lines or PBL derived from common marmoset, cynomolgus macaque, olive baboon, rhesus macaque and chimpanzee. Resting and activated human T cells were prepared as described in Example 7. B cells lines from monkeys were obtained from Biomedical Primate Research Center (Rijswijk, The Netherlands), and were cultured in RPMI 1640 medium supplemented with 2 mM glutamax, 100 UI/mL penicillin, 100 μg/mL streptomycin and 10% fetal bovine serum, at 37° C. and 5% CO₂. After washing in PBS cells (0.2−0.4×10⁶ cells/well) were incubated in staining buffer (PBS/1% FBS) containing F45D9-γ1 or human IgG control antibodies (10-20 ug/ml) in a 96-well U-bottom plate for 30 min on ice, in a 100 ul/well volume. Cells were then washed once with staining buffer, and further incubated for 30 min on ice with 1:30 dilution of FITC-conjugated rabbit F(ab′)₂ anti-human kappa (DakoCytomation Cat. F0434) or FITC-conjugated rabbit F(ab′)₂ anti-human IgG (DakoCytomation Cat. F0056). […]

[3] = target: T1, Human Fas (CD95) on the cell surface; experiment: flow cytometry on the human B cell line SKW6.4, FITC anti-human IgG secondary, MFI after subtraction of the control human γ1 staining
[4] = target: T1, Human Fas (CD95) on the cell surface; experiment: flow cytometry on Jurkat cells, FITC anti-human IgG secondary, geometric MFI after background subtraction
Protocol: as §1

[5] = target: T3, Common marmoset Fas on the cell surface (common marmoset (Callithrix jacchus)); experiment: flow cytometry on the marmoset B cell line 9505, FITC anti-human IgG secondary, MFI after subtraction of the control human γ1 staining
T3 construct: whole, on cells
From the text: as §2

EC50 (read off the curve) [1]: ~0.4 mg/L
binding result [2]: no binding
EC50 (read off the curve) [3]: ~0.8 mg/L
EC50 (read off the curve) [4]: ~0.5 mg/L
EC50 (read off the curve) [5]: ~2 mg/L
B1: F45D9-γ1 mAb (recombinant human mAb T17/B2-1G4, gamma-1 isotype) (antibody, V domains shown)
VH: QVQLQQWGAGLLKPSETLSLICAVYGGSFSTYYWTWIRQPPGKGLEWIGEINHRGTTNYSPSLKSRVTISVDTSKNHISLNLTSVTAADTALYYCARGLLWIGEGDYGLDVWGQGTTVTVSS
VL: DIQMTQSPSSLSASVGDRVTITCRASQGIRRWLAWYQQKPEKAPKSLIYAASSLQSGVPSRFSGSGSGTDFTLTISSLQPEDFATYYCQQYNSYPYTFGQGTKLEIKR
notes: Whole human IgG1 (γ1fa allotype) with human kappa light chain, made in CHO DG44 cells; also called IgG1; T17/L18/B2-1G4
